From paper PMC9323411

Biological target: CLDmut (CD4-linker-DC-SIGN fusion protein with a linker of 8 Gly4Ser repeats and the Cys-to-Ser back (human) (UniProt P01730))
Assay: BLI

trimeric HIV-1 CN54 gp140 (domain or fragment)
Kd: 0.39 nM | koff: 1.62e-05 s⁻¹ | kon: 41100 M⁻¹ s⁻¹
